Test: label from the status in PepcDB records

| Sequence | protein production |
| --- | --- |
| MDKQTSPQEEIPELAVAVPQDAAALARALDLEAQTVSTWLTQGLGIVARVGSQIVGLAHLVDDGGHADVTDLALTTPDDADVVAALIGGAEQIATELESRVLVVSGLKASPGPAYHYNSGWVRVLPTRVVVPTAEAMHAFGAALAAQLRAGDIVLASGDLGAGKTTLAQGIGRGLGVDGPVISPTFVLARRHVGSEGRPGLVHVDAYRLGSAAELIDLDLDETMDQAVTLIEWGAGIAEDLGGSHLDVDIRRSGDPADETRVVYLEGFGPRWQDVDLSLLSELPLDTISPDQTGDNN | failed |
| MDLALAPETLARWQFGITTVYHFLFVPLTISLAALTAGLQTAWVRTEKEKYLRATKFWGKLFLINIAMGVVTGIVQEFQFGMNWSDYSRFVGDVFGAPLAFEALIAFFFESTFIGLWIFGWDKLPKKIHLACIWMVSIGTLLSAYFILAANSWMQHPVGYRINEEKGRAELTDFWQVLTQNTTLNQVFHSFSAAFLTGGAFMVGIAAFHLMRKKHIPVMRTSLRLGLVTLAVGGLLTAVSGDTLGKVMYEQQPMKMAAAEALWDGEKPAPFSVFAYGDVDKGHNKVALEVPGLLSFLAHSDFESYVPGINDTNKALQEQFGPGDYKPIVPVAYWGFRWMIGFGMASFSLGLLGLWLTRKRFLLPPALRTGEDEVPHLVLLKKPLGARLTRMYWLLALWTMAFPLIANSWGWIFTEMGRQPWVVYGVMQTRDAVSPGVSTAEVIISMSVFTLLYAVLAVIEVKLLAKYVKAGPPELTEADLNPPTKIGGDLRDADKPMAFSY | failed |
| MDLFPVLKELAQKTPSKILLIVLDGVGGLPLEPGGPTELEAAKTPNLDRLAEESALGLLTPVYPGLAPGSGPGHLALFGYDPFRYVVGRGALSALGLGADFREGDVALRGNFATLDPEGKVVDRRAGRPPTEENQRVIAKLKEAIPRIEDVEVLFYTESEHRFLVILRGEGLEDKVTDTDPQKTGLPPLKAKALDEASERTARLVNLLSERIREVLKDEPRMNGALFRGASKKPSFPRMQEVYKLTPAAIASYPMYKGLASLVGMEVLPVEGEGDALEGKLKALKENWGRYDFFYFHVKKTDAMGEDGNFHGKVEKVELFDALLPEILALGPDVLAITGDHSTPALLKAHSWHPVPLLLKAPYLRADEARRFTEREAQRGSLGHLRGVELMPLLLAHAGKLLKYGA | failed |
| MDLHESESRTHVLSTDGDDGYIDMEVNLSSSSSSSTSSSSFFSFPVTSSPPQSREFEFQMCSSAVASGESTTSPADELFYKGQLLPLHLPPRLKMVQKLLLASSSSTAATETPISPRAAADVLSPRRFSSCEIGQDENCFFEISTELKRFIESNENHLGNSWSKKIKHSSITQKLKASRAYIKALFSKQACSDSSEINPRFKIEPSKVSRKKNPFVNSENPLLIHRRSFSGVIQRHSQAKCSTSSSSSSSASSLSSSFSFGSNGSLDLQTLMRSSNASDNSIEGAIEHCKQSFTTRKSNVTESELCSSRTSVSTCGDLDKD | failed |
| MDLIHEKVFVNRYHYDVRNHEWEKENGVPKTNVEVTFQLHHKDKEANNTSVVAVLQFMIVRDEFVISGIVSQMNHIQNRIVNNPKDFSQEEAEYLAAPLLDTLQRLTYEVTEIALDRPGINLEF | not failed |
| MDLKGWISKKSSNVSYEKIKYEFSNVKYSVDHGRLEILHGIKGILLPKTITVIMGPSGSGKTTLLNILSMKVTEGVEGDFLINDMSRMKNIKRHMGYVLQDDYFFSRLTVYETIEFTAKLKLDIRDKKKLNELVHSVLDIMSLTHVKDTIVGDAFIRGISGGQRKRLSIANEILSNPPLLLMDEPTSGLDSSSALSLVECIQRIAQTSNTTIISSLHQPSSQVFSKFDRLIAITNGYIIYHGKTTDLNKYLKKVGFICPYGWNVADYLMDILSNKKFEAILIDNYNKYLHFDSDVGYYMNVKAIDSKIIHDDYDSILEKTNQSISKNSQTNNKSSTNLSSINKSPILSTQENKTREHDILKFQAVELLISLQENKTPYIRQNFFLLIRGLKKIITDEITIIKVIDLVVILTLFGVLWLHTFKEETEEGIIDTIGAIFFILSYWTFYPAYLSLYSFPSEREVIAKERNMKTFQVSNYFLSKLLAEFIYFFMIIAFWILVTHLILYGTLKIGIYLSYAFITLLNALISSSLGYFISTLFDNFSKAVSFLSVVLLTMTLTNGFYVEISKLDVPFRYLQWLSYQTYSASVLAKIKFDDALIKCSPDNNSLPCKNNGFFPGEIIVQKRFATLHISISILILICFYSVIKTFTYVSLRWSQALKMK | failed |
| MDLMAYWLCITNEDNWKVIKEKKIWGVAERYKNTINKVKVGDKLIIYEIQRSGKDYKPPYIRGVYEVVSEVYKDSSKIFKPTPRNPNEKFPYRVKLKEIKVFEPPINFKELIPKLKFITNKKRWSGHLMGKAMREIPEEDYKLIVGN | not failed |
| MDLNNNKSNNIVKTLARWCLLLQAFMISSNTVALKEPDYVNMNITIRNSMTGLIRPEIVYRCQSKRKDYGWHRSPKPGVQFSFPIILIKGETKIPAIHICQIRSVLGTATLVIQNTYLDAEMCPRSSCAHEATPKGIVFRGLEWDFKTVFPKLKPVEYLELPWTPWPNRT | failed |
| MDLRVLLSGLAYSTIFGLSFLFTKNALDYVTPLTFLSFRFIVAFLSYLLLLITGAVKLGKKPYWKLWKLVLFQPVLYFLFETYGLQRVNSSEAGMIIALIPIVVNLLAPFILKEKGDLLHYLLVGMGFLGVSLIVGFNITPGNIVGKVFMLLAVLSGAMYSVFSRKFSKEFTPTEITFFMMMTGAVFFTLLSLSTGDFRPVFNVDVVIGALYLGVLSSTVAFFLLNYAIRKLSPIFTTLFSNFTTVVSVIAGVVFRNETVGIQQIAGMGLIISSLIIMSLRRSYKRLSRAQKL | failed |
| MDLSSKPQQQLLNSLPIAGELTVTGEMGVCYKECLKNHAANLGGHALDGCGEFMPSPTATSTDPSSLRCAACGCHRNFHRRDPSENLNFLTAPPISSPSGTESPPSRHVSSPVPCSYYTSAPPHHVILSLSSGFPGPSDQDPTVVRSENSSRGAMRKRTRTKFTPEQKIKMRAFAEKAGWKINGCDEKSVREFCNEVGIERGVLKVWMHNNKYSLLNGKIREIEHGLCLNTHSNDGDGSSSS | not failed |
| MDLTIQHFIALAPLLITSLTVVVVMLAIAWRRNHSQTFLLSVAGLNLALLSIYPALKVAPLVVTPLLHIDNFACLYMAIILASTLACVTMAHAYLGDGKVGYPGNREELYLLILLAAAGGLVLVSAQHLAGLFIGLELLSVPVYGLVAYAFFNKRSLEGGIKYMVLSAAGSAFLLFGMALLYAEAGSLSFEGIGKAIAATGMPSPIATVGLGMMVVGLAFKLSLVPFHLWTPDVYEGAPAPVAAFLATASKVAVFAVLVRLFQISPAASSGVLHDVMAVIAVASILVGNLLALTQTNLKRLLGYSSIAHFGYLMIALVASKGMAVEAIGVYLATYVLTSLGSFGVITMMSSPYSGRDADAMFEYRGLFWRRPYLTAVMTLMMLSLAGIPLTAGFIGKFYIIATGVESQLWWLIGALVIGSAIGVFYYLRVMVTMYLVDNKLPRHDAAINWAQRTGGVMLLAVAILTFVLGVYPQPLLDLVVNAGLHAAG | not failed |
| MDLVVITETTIPTKITHVNKKSSDELLRKFADPDDVDESSKSTKRRKKSAKSSSREKGVDIESNTSGLVERKRLLLAPASKRRSLFIRQLASGKSHLRNKSLVRTIGKTWRKTMEGASRVFIEKHYNRHRRLTNDVV | failed |
| MDMEQRERWATKIGLILAMAGNAIGLGNFVRFPTQVAGNGGGAFMVPYFLALFLLGIPVMWVEWVQGRYGGKYGHGTLGPTFYLMARESLKPRSALWFGLIGGALAFATTTLLNSYYLHLIGWSAAYSWFSITGAYYGKNTAQFFSQYLSNHGLVFLFWGITVVLLGIAVGQGVSKGIERWVKVMMPLLYVFAIILVIYVFALGSPLGQPQWSTIKGFEFIWSPNWGYLKDHLWKVMLAASGQIFFTLSLGMGIIQNYASYLGPKDDVALSGLATVSLNEFAEVVLGGSIAVPLAVAYAPKIVPPDVLAKGSDAALAWISENFGLGFSYTSLPNIFVQMGTAGRFFGALWFLLLWFAGFTSAIAMYNYLTALLEEDLGIKRSVGTWVVFIIYFLLGIPVVYINGYLDQVDAWISFQLALLALFDIIVSVWLFKPDNFWRELHEGALINVPEFYKWITVIIAPIFIALPLFGTFTDLVSKTLGWPAKIAILTMLTIGAIEAYYAIKKKYGEELEKNEVIIKV | failed |
| MDNASEQRNYTTFWVGLASLTLEVVFIMAKSRVKKRPDGRYAMQIYLGTVDGKRKYKTVYGGTPKEVQKKADEVRILMGKGIDISAQRDTFKEWGNHWLKIKKAIVSSAHYKTCEQKLRIINCYIGDMPISQIKTANVQNIIFDLSSLNRWTGKPTAKRTLVEYRSVCRQVFQLAIENRIIDYNPASSVKIVSNQLKKERRALSVEEQGWIINTPHRAQKAAMIMMFAGLRRGEVIPLTWNDIDFEAGTIRVNKSVFKEGTRFNIKSGAKTESGNRVVNIPQILIDFLKLQPKDTILVCPDTKDVMMTETSWRRMWDSYIKDLNIKYGDLNGKRSKYDPKGVPITIPRITPHWLRHTFCTLLYLSGTDVLTAKEQMGHSDIKTTLGIYTHLDKEHKRNAVSKLNEYIETHASHMQVKNS | failed |
| MDNLSFHDGNIFNLLHTRSQDPSHEVDQRMQFHSSLVRRLSQEQELEGHQGCVNALAWNSNGSLLISGSDDLRINIWNYSSRKLLHSIDTGHTANIFCTKFVPETSDELVVSGAGDAEVRLFNTSRLSGRAEDDNAIIPSALYQCHTRRVKKLAVEPGNPNVVWSASEDGTLRQHDFRESTSCPPAGTAHQECRSVLLDLRSGAKRALADPPKQTLSLKSCDISATRPHLLLVGGSDAFARLYDRRMLPPLASSRKRMPPPPCVNYFCPMHLSERGRTNLHLTHVTFSPNGEEVLLSYSGEHVYLMNVNNGICSTGIMQYTPGDVDNLFSFSNNLHDVESPPQVSTTPQNGFHRSSNAATVKKCTELVEIAKWSLEEGTDVFYAIEAANEVLDAHSNDIESALRHECLCTRAALLLKRKWKNDAHMAVRDCHNARRIDASSFKAHYYMSEALQQLGKCKEALDFATAAQHMNPSDADIVAKVESIKRDLQAAGAEKNEETGAGTTRVLSLSDILYRSEANSDSSHDMSRSEREDSDYDEELELDIQTSLSDDEGRDTDSNSMRGSLNLRIHRVGDDKPMENTVDNASSGTASSSQNDRTSYQPEGAIDMKRRYVGHCNVGTDIKQASFLGQRGEYIASGSDDGRWFIWEKQTGRLMKVLVGDESVLNCIQCHPFDSVVATSGIDNTIKIWSPTASVPSIVAGGSAGPATANVVEVMESNQQKLSRNRENPLSVELMQRFRMQEFAEGNFHPFECTQS | failed |
| MDNRTGEMEVFVSAAELQSFSAAGRRLKLSPSAVSKLVTRIEDRLGTRLLVRSTRMMTLTPEGEIYLARARRILADIADTEQIVAAGGKLVPRGLLRVNASVGFGERFLLPLIPAFLELYPEVQLDISLTDGIIGLIEERTDIAIRSGAMDDSSLKARKLLESRRVIIASPSYIKRHGMPQTPADLAAHNCFSFNFRRSLNEWPFRDPGSTEIYRLPVSGNSSVNSGMIMRRLCLAGSGLGRVGQFHVQPDIDAGTLVPVLEDYNPDDIEEIHAVFAGHEHLATRIRAFIDFLAEHVGKDRA | failed |
| MDNSGIYVGLDIGTTSIKVIVAERVKGQMNVIGVGSARSNGLSRGVIVDIDKAAETIRSAVRQAEEKASIEIKKVIAGVPANLVKIERCRGMIAVADESKEINNEDVQNVAAAALVQSLPPEREVLDVIPDEFVVDGFDGIKDPRGMVGVRLEMHGTLFTGPKTIIHNTRKALEKAGLQIEQIVIAPLALSSLVLNDGEQDFGSIIIDMGGGQTTAAVIHDHQLKYTYVDQEGGQYITKDISVVLNTSIENAEKLKRDYGYADAQQASDDELFPVDVVGQSTPEQISEQYLAEIIEARLDQIFDKVKQHLDEIRALELPGGIVLTGGVAALPGITDLAAQRFGTRVRVFTPNQMGLRHPSFDEALAVIKYQAALSEVTLLVKSALTGDTRASVALEFADTTPAPSQPAAQPKKATKKQSAPQAPQEQADPDHKGTVERVKGFFNHFFD | failed |

From a protein production outcome set (Wang et al. 2014)
